Experimental data as given in paper PMC3143260 (2012).
Where two headings read alike, the source gives them in different places.

B1: RPP29 18-127 (protein)
chain: GSYQEIIGRTWIFRGAHRGRVNKKNIVWHELIGLKVRVVNSTHPGYVGIEGYVIDETRNMLVIAGENKVWKVPKDVCIFEFETWDGTKIKISGEKLVGRPEMRLKKRWRK
B2: RPP29 1-127 (protein)
chain: MWRNSEERENRTSGRSQGSYQEIIGRTWIFRGAHRGRVNKKNIVWHELIGLKVRVVNSTHPGYVGIEGYVIDETRNMLVIAGENKVWKVPKDVCIFEFETWDGTKIKISGEKLVGRPEMRLKKRWRK

Columns and labels:
RPP21 [1] = biological target: T1, RPP21 (Pyrococcus furiosus, UniProt Q8U0H6); experiment: ITC
T1 chain: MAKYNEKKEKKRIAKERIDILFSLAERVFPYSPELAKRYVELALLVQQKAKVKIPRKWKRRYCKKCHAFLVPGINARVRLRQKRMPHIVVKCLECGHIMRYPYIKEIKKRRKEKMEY

RPP21 [2] = biological target: T1, RPP21; experiment: ITC

Row | Binder | Kd (RPP21 [1]) | Kd (RPP21 [2])
1 | B1 | 230 nM | –
2 | B2 | 250 nM | 250 nM
